Columns and labels:
[1] = molecular target: high-affinity cell-surface IFN-alpha receptor of human lung carcinoma cells (human (endogenous in PC9 and other lung carcinoma cell lines)); test: radioligand binding; several lung carcinoma cell lines (lines not named) in suspension, room temperature, 2 h, 0.1-4 nM [125I]IFN-a; non-specific binding measured with 100-fold excess of unlabelled IFN-a; Scatchard analysis
[2] = molecular target: high-affinity cell-surface IFN-alpha receptor of human lung carcinoma cells (human (endogenous in PC9 and other lung carcinoma cell lines)); test: radioligand binding; PC9 cells in suspension (200 ul of 5 x 10^6 cells/ml) incubated at room temperature for 2 h with 0.1-4 nM [125I]IFN-a; non-specific binding measured with 100-fold excess of unlabelled IFN-a; Scatchard analysis

Kd [1]: 0.02 to 0.1 nM
Kd [2]: 0.042 nM
Substance: Pure recombinant human IFN-alpha, labelled with 125I (from UniProt P01563 24-188) (ligand)

— article PMC2074667
